Molecular target: LRRTM2-mVenus (full-length LRRTM2 mVenus-fusion protein) (UniProt O43300)
Experiment: saturation binding to cells

Sequence of UniProt O43300 (O43300 34-516): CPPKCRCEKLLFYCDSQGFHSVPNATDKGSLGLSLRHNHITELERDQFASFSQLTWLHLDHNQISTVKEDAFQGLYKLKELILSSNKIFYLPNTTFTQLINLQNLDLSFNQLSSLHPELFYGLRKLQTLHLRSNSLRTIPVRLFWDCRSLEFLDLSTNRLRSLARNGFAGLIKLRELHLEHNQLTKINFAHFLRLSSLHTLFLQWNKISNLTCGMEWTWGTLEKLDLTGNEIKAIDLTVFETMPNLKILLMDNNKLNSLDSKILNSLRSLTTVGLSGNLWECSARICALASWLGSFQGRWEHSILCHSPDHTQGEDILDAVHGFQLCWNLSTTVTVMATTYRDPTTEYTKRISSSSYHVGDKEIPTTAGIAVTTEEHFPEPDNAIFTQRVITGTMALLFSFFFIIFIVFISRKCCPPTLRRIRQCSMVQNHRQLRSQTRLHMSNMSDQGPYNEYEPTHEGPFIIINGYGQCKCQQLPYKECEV

## IgNrx1β^SS4− (Ig-fusion protein of neurexin-1β lacking an insert in splice site #4) (Fc fusion)
  Kd: 5.83 nM
